# According to the supplement of paper PMC12042874:
# ± gives the uncertainty stated by the source.
# Assay: amyloid nucleation score (Sup35N fusion, yeast selection) (log enrichment); library NNK2; higher = more nucleation; inactive = no reads after selection
# In short: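 The nucleation score is the log enrichment of output over input reads, calculated with DiMSum and centred on the mode score of non-aggregating sequences. Sequences with under 100 input reads were excluded. Reads came from Illumina sequencing of plasmid inserts from psi-negative yeast expressing Sup35N fused to peptides of 20 random codons, induced 24 hours with 100 μM copper sulfate and grown 7 days at 30°C without adenine and uracil.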
row,Substance,amyloid nucleation score
1,LCLTYYRDHGVLASMYFHVW,0.529 ± 0.31
2,LCMQSVSGALSPSARRRLCV,-0.235 ± 1.1
3,LCNNPNGGIGQLKVL,0.515 ± 0.64
4,LCQHREMALMLGGEPADDWG,1.87 ± 0.36
5,LCRCNATRGGCCLFLGCFWL,2.73 ± 0.09
6,LCRKRYVRSHTTSWQTGGAF,0.888 ± 0.48
7,LCRVALKEDS,0.436 ± 0.8
8,LCSYANKDFKVHRSHDFVRV,0.369 ± 0.43
9,LCWLIVGKCGKGKTYDGFIG,-0.78 ± 1.1
10,LCYMFIFRTWMLLWVQTMKN,inactive
11,LDAERM,0.306 ± 0.23
12,LDALGLDTFNMQLV,0.236 ± 0.28
13,LDDWDGKTSRIHSGFYSRLR,0.224 ± 0.52
14,LDLRMRYQVPYQWGTNSAEN,0.629 ± 0.48
15,LDNWEL,0.145 ± 0.16
16,LDRMSRIRGSCRYACVL,1.15 ± 0.41
17,LDVKERTCL,0.261 ± 0.54
18,LDVYQ,-0.711 ± 0.64
19,LDWPDLENQAVVVNTWVSE,0.279 ± 0.5
20,LDWRTQFLCV,1.19 ± 0.61
21,LDYFNYCSSLGFHMVSVVYV,inactive
22,LDYSNFNTRKFAKDEGDMRR,8.371 ± 0.049

row,Substance,amyloid nucleation score
1,LEKKLFVKVYRHSICIGVAE,1.9 ± 0.43
2,LELKDNMAFDRSLFLKRHGG,-0.243 ± 0.28
3,LEPYLS,-0.48 ± 0.49
4,LERWYYPMS,0.513 ± 0.16
5,LEVRSAWGHLPFMSPEGL,-1.17 ± 0.44
6,LFAKDGLRSRLKEC,-0.033 ± 0.27
7,LFDLWSVEFC,-0.392 ± 0.43
8,LFEDVMRKGRWRDASGRWKH,3.27 ± 0.17
9,LFFCDPWPHLMWHLPRIVHL,-0.748 ± 0.42
10,LFFSCHRVDCHSALNMFIVS,5.53 ± 0.065
11,LFGHLVLYYPFSSTINCVVV,5.59 ± 0.056
12,LFGSVHGLTCVLSGLYCVQH,10.32 ± 0.04
13,LFIGSIILHYGEKEVKMLAT,0.571 ± 0.49
14,LFIRINWDFSNLWGTFGITV,0.553 ± 0.2
15,LFKDMYSDLKHILNCGFQTT,-0.711 ± 0.45
16,LFKMCTSVFRVCSAGMMELG,0.35 ± 0.27
17,LFLSGKEIPMNVFTIVCTDP,inactive
18,LFLTACER,6.721 ± 0.043
19,LFLTDTLMMYINSECR,1.75 ± 0.087
20,LFPLHFCNEHIMRLIKKLTG,0.579 ± 0.8
21,LFRDTSQLGNSVIVTYYM,9.029 ± 0.052
22,LFRYQRPLYGVRRTSTKVMA,0.226 ± 0.37

row,Substance,amyloid nucleation score
1,LFSHELADSSTVMKYTWWAV,4.23 ± 0.045
2,LFSTTRFVAHKAGR,0.47 ± 0.33
3,LFSVVLVGGARRSYLRGGPG,0.611 ± 0.81
4,LFSYDDMGALRVNMDWFYNF,inactive
5,LFTGRNRTSTHSSDISSRN,0.531 ± 0.66
6,LFVIGLLSGVSICVYCRSWS,3.41 ± 0.11
7,LFVKTLGFLAVCASQ,0.609 ± 0.64
8,LFWIGWLRRRKKGIGVANKG,0.001 ± 0.49
9,LGCEDIHKEYSLHFSIWMQM,0.975 ± 0.18
10,LGCYTYLQEVRMGEDTARGG,0.386 ± 0.39
11,LGDVYMWIFKKLLWVNHWDV,-0.033 ± 0.44
12,LGGGHKMDLFCYMISIWYYM,2.77 ± 0.18
13,LGHILV,inactive
14,LGIDAYCPWCVYECFSSRGE,9.586 ± 0.057
15,LGLAVKSRTPDLTGGPRASE,1.68 ± 0.18
16,LGLNLTRDYLMLGKRLKCCR,-0.993 ± 0.78
17,LGNDR,-0.744 ± 0.48
18,LGRNGASYLNDSCRIPNAGK,-0.562 ± 0.56
19,LGSAYSGKPHVFCS,inactive
20,LGSLNNPA,7.941 ± 0.077
21,LGYIRCLHSVSYLLFMYMLF,inactive
22,LGYRRSCEQGWGMLLGNYSH,inactive

row,Substance,amyloid nucleation score
1,LHCYCDLDDALTNPPAHHSR,0.605 ± 0.34
2,LHQRLV,0.195 ± 0.27
3,LHTWSVSLVYYNVFYLSSRA,-0.417 ± 1.1
4,LHWGEFEYCILCARGDIKR,-0.755 ± 0.5
5,LHWKWQMNCLWSEGSHCFNN,0.116 ± 0.33
6,LIDRIKWEGPFRIRWLFSWF,0.566 ± 0.66
7,LIFFCLFEYRLRLHCNRRDH,-1.34 ± 0.49
8,LIFFYSS,-1.05 ± 1
9,LIFQVMFVDCIEFRCWNMAL,0.959 ± 0.6
10,LILNIRTTGCGYFC,8.818 ± 0.049
11,LINCSSTLITIYSRYNAMYF,5.415 ± 0.049
12,LINLVWTDEITMSDYMKRSG,0.858 ± 0.17
13,LIPHSTSHRGFKLYSRVFYP,-0.047 ± 1.1
14,LIQSFSVLAMHDRLGCWRLR,2.74 ± 0.12
15,LIQVGQSST,0.046 ± 0.49
16,LIRFTLMSTFEITIMSFRCV,0.934 ± 0.2
17,LIRSFNSSYVEGRHANI,2.69 ± 0.14
18,LISSSFRSVLRPNWTPLKVC,inactive
19,LISVSTRKCVIIG,-0.326 ± 0.45
20,LIVESI,inactive
21,LIVKCSYLSWQAGIWAGFGY,2.9 ± 0.089
